Assay results: patent US7498317B2, “Antibacterial agents and process for producing the same” (Kabushiki Kaisha Yakult Honsha, priority 1998, dated 2009)

Test system: Helicobactor pylori
Assay: Growth of Helicobactor pylori in 96-well microplate (turbidity at 600 nm)
Format: cell-based
Conditions: 37° C. for 3 days; for suppression of the growth of Helicobactor pylori: 2 μL of 1 mg/mL added to 200 μL culture; for absorbance (turbidity at 600 nm): 2 μL of 1 mg/mL added to 200 μL of 1.5×10^8 CFU/mL in Brucella medium with 5% FCS, slightly aerobic, control group 0.835

## CC1(C)S[C@@H]2[C@H](NC(=O)C(NCC(O)C3OCC(O)C3OC3OC(CO)C(OS(=O)(=O)O)C(O)C3O)c3ccccc3)C(=O)N2C1C(=O)O (stereo partly shown) [CarrabioAM]
  suppression of the growth of Helicobactor pylori: totally suppressed the growth
  absorbance (turbidity at 600 nm): 0.003

## CON=C(C(=O)N[C@@H]1C(=O)N2C(C(=O)O)=C(COC(C)=O)CS[C@H]12)c1csc(NCC(O)C2OCC(O)C2OC2OC(CO)C(OS(=O)(=O)O)C(O)C2O)n1 (stereo partly shown) [CarrabioCTX]
  suppression of the growth of Helicobactor pylori: totally suppressed the growth
  absorbance (turbidity at 600 nm): 0.000
